Source: article PMC9243006

Target: purified complement factor H protein (UniProt P06909)
Assay: SPR; CFH immobilised by amine coupling on a sensor chip; rTraT at 80, 40, 20, 10, 5 or 2.5 µg/ml

Sequence of UniProt P06909 (P06909 19-1234): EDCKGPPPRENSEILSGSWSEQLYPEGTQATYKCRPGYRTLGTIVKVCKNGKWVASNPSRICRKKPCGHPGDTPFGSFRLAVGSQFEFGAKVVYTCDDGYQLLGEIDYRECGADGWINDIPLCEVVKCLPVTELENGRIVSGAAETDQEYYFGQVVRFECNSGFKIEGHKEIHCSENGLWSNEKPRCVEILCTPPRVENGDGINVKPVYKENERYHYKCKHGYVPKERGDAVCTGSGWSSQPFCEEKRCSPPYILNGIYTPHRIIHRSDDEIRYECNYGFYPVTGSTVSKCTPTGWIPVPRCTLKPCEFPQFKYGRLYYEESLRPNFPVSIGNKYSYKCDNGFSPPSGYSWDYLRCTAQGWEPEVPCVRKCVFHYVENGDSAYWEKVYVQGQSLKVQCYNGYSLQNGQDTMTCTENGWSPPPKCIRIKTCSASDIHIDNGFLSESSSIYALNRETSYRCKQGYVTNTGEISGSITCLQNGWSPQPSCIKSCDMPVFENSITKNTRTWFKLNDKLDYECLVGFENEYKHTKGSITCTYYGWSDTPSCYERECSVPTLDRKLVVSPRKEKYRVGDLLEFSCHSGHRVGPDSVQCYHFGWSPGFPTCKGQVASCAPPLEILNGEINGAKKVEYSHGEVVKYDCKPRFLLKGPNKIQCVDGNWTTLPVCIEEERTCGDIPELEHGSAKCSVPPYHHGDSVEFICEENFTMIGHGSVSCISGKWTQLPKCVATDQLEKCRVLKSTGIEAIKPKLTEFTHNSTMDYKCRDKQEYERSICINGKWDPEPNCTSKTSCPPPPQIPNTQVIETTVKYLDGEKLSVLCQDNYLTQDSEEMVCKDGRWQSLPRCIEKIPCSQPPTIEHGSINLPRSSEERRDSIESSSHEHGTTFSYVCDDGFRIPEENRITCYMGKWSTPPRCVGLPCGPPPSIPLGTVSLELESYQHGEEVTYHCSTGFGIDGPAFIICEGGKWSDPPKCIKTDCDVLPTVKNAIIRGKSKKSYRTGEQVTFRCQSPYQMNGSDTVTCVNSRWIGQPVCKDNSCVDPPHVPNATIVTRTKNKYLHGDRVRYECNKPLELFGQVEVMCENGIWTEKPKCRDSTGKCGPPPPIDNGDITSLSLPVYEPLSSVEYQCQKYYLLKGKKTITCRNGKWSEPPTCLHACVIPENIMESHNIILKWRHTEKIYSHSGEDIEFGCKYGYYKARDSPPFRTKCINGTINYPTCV

Substance: recombinant TraT (rTraT) (domain or fragment)
- Kd: 3.15 µM
